Assay [1] concerns the target human CD137 on the cell surface (human, UniProt Q07011 24-255). Description: cell-based or functional assay.
Assay [2] has as its target T1, human Nectin-4 (human, UniProt Q96NY8 32-510).
T1 construct: Expressed on CHO cells; also called CHO-Nectin 4
T1 sequence: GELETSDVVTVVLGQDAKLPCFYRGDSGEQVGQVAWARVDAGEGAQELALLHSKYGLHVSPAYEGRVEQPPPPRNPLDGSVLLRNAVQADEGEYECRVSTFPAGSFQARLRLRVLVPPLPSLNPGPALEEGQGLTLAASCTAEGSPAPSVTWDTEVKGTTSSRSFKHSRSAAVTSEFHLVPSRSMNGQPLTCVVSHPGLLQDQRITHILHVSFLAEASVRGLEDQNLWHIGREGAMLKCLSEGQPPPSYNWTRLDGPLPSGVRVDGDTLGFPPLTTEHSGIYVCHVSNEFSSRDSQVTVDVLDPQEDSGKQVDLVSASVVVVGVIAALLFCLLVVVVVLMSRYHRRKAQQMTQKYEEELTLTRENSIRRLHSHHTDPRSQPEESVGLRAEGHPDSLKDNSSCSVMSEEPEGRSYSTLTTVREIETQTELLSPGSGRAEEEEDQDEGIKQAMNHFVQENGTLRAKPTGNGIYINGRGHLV
Description: immunofluorescence cell binding, CHO cells expressing human Nectin 4, 10 µg/ml per the text. Here is the method: Bispecific Nectin-4/CD137 binding proteins were generated, produced, and purified as described in Example 4. To examine the binding activity of the BsAbs 1925Ab1, 1925Ab2 and 1925Ab3 to Nectin 4, CHO cells expressing human Nectin 4 were used in an immunofluorescence binding assay. The cells were cultured in F12K media with 10% FBS. On the day of the experiment, the cells were collected, washed, and stained with the binding proteins at 4° C. for 2 hours, followed by fixing cells with paraformaldehyde for 15 minutes at room temperature. The disclosed antibodies 1925Ab1, 1925Ab2 and 1925Ab3 are bispecific antibodies that bind to both Nectin-4 and CD137. Monospecific antibody 1925Ab4 (parental murine antibody) only binds to Nectin-4 and is used as a control antibody. The fixed cells were then washed with PBS three times, followed by staining the cells at room temperature for 1 hour with Alexa Fluor® 488 Goat Anti-Human IgG antibody (Invitrogen, Cat #: A-11013) for detection. The binding signal was assessed by quantifying the fluorescence intensity using iQue Screener PLUS (Sartorius, MI).

Sequence of human CD137 on the cell surface (Q07011 24-255): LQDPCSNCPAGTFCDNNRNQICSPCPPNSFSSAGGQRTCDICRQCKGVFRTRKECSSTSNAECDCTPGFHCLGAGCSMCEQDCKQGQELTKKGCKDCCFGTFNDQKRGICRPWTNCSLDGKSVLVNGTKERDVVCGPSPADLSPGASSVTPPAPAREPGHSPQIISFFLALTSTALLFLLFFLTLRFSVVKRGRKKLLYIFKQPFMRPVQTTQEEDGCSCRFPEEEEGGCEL

B1: 1901Ab3 (bispecific antibody, human IgG1, kappa, L234A L235A)
heavy: not shown
light: DIQLTQSPSFLSASVGDRVPITCRASQGISNFLAWYQQKPGKAPELLIHSASTLQSGVPSRFSGSGSGTEFTLTISNLQPQDFATYYCQQVNSYPLTFGGGTKVEIKRTVAAPSVFIFPPSDEQLKSGTASVVCLLNNFYPREAKVQWKVDNALQSGNSQESVTEQDSKDSTYSLSSTLTLSKADYEKHKVYACEVTHQGLSSPVTKSFNRGECGGGGSGGGGSGGGGSQVQLVESGGGVVQPGRSLRLSCAASGFTFSNYGMHWVRQAPGKCLEWVAIIWYDGINKYYADSVKGRFTISRDNSKNTLYLQMNSLKAEDTAVYYCARDQDYDILTGYYKEDYFDFWGQGTLVTVSSGGGGSGGGGSGGGGSGGGGSSYELTQPPSVSVSPGQTARITCSGDALPKKYAYWYQQKSGQAPVLVIYEDSKRPSGIPERFSGSSSGTMATLTISGAQVEDEADYYCYSTDSSGNRVFGCGTKLTVL
Consider B1, for which the “EC50 of CD137 signaling (NFKB-luc, Jurkat reporter cells co-cultured with NUGC4 cells)” value in assay [1] was 100 pM.

B2: 1912Ab3 (bispecific antibody, human IgG1, kappa, L234A L235A)
heavy: not shown
light: DIQLTQSPSFLSASVGDRVTITCRASQGISSYLAWYQQKPGKAPKLLIYAASTLQSGVPSRFSGSGSGTEFTLAVSSLQPEDFATYYCQQLNSYPYTFGQGTKLEIKRTVAAPSVFIFPPSDEQLKSGTASVVCLLNNFYPREAKVQWKVDNALQSGNSQESVTEQDSKDSTYSLSSTLTLSKADYEKHKVYACEVTHQGLSSPVTKSFNRGEC
On to B2, for which the “EC50 of CD137 signaling (NFKB-Luc, Jurkat reporter cells co-cultured with NEC8 WT cells)” value in assay [1] was 200 pM.

B3: 1925Ab1 (bispecific antibody, human IgG1, kappa, L234A L235A)
heavy: not shown
light: DIQMTQSPSSLSASVGDRVTITCKASQSVNNDVAWYQQKPGKAPKLLIYYASNRDTGVPSRFSGSGSGTDFTLTISSLQPEDFATYYCQQDYSSPYTFGQGTKLEIKRTVAAPSVFIFPPSDEQLKSGTASVVCLLNNFYPREAKVQWKVDNALQSGNSQESVTEQDSKDSTYSLSSTLTLSKADYEKHKVYACEVTHQGLSSPVTKSFNRGEC
As to B3, the “EC50 of CD137 signaling (NFKB-luc, Jurkat reporter cells with target cells)” value in assay [1] turned out to be 27 pM.

B4: 1925Ab3 (bispecific antibody, human IgG1, kappa, L234A L235A)
heavy: not shown
light: B3 light
For B4, the “EC50 of CD137 signaling (NFKB-luc, Jurkat reporter cells with target cells)” value in assay [1] worked out at 49 pM.

B5: 1925Ab4 (antibody, human IgG1, kappa, V domains shown)
VH: QVQLQQSGPELVKPGASVRISCKASGYTFTTYYIHWVKQRPGQGLEWIGWIYPGNVNTKYTENFKDKATLTADKSSSTAYMQLSSLTSEDSAVYFCARGLYYFDFWGQGTTLTVSS
VL: SIVMTQTPKFLLVSAGDRVTITCKASQSVNNDVAWYQQKPGQSPKLLIYYASNRDTGVPDRFTGSGFGTDFTFTISSVQAEDLAVYFCQQDYSSPYTFGGGTKLEIKR
notes: Parental murine anti-Nectin-4 antibody; also called parental murine monoclonal antibody; monospecific anti-Nectin-4 control antibody
For the molecule B5, the binding result in assay [2] was “binds”.

B6: 1925Ab2 (bispecific antibody, human IgG1, kappa)
heavy: not shown
light: DIQMTQSPSSLSASVGDRVTITCKASQSVNNDVAWYQQKPGKAPKLLIYYASNRDTGVPSRFSGSGSGTDFTLTISSLQPEDFATYYCQQDYSSPYTFGQGTKLEIKRTVAAPSVFIFPPSDEQLKSGTASVVCLLNNFYPREAKVQWKVDNALQSGNSQESVTEQDSKDSTYSLSSTLTLSKADYEKHKVYACEVTHQGLSSPVTKSFNRGECGGGGSGGGGSGGGGSQVQLVESGGGVVQPGRSLRLSCAASGFTFSNYGMHWVRQAPGKCLEWVAIIWYDGINKYYADSVKGRFTISRDNSKNTLYLQMNSLKAEDTAVYYCARDQDYDILTGYYKEDYFDFWGQGTLVTVSSGGGGSGGGGSGGGGSGGGGSSYELTQPPSVSVSPGQTARITCSGDALPKKYAYWYQQKSGQAPVLVIYEDSKRPSGIPERFSGSSSGTMATLTISGAQVEDEADYYCYSTDSSGNRVFGCGTKLTVL
Turning to B6, the “EC50 of CD137 signaling (NFKB-luc, Jurkat reporter cells with target cells)” value in assay [1] was found to be 80 pM.

B7: 1912Ab4 (bispecific antibody)
heavy: not shown
light: AIQLTQSPSSLSASVGDRVTITCRASQGINSWLAWYQQKPEKAPKSLIYAASSLQSGVPSRFSGSGSGTDFTLTISSLQPEDFATYYCQQYNFYPYTFGQGTKLEIIRTVAAPSVFIFPPSDEQLKSGTASVVCLLNNFYPREAKVQWKVDNALQSGNSQESVTEQDSKDSTYSLSSTLTLSKADYEKHKVYACEVTHQGLSSPVTKSFNRGEC
On to B7, for which the “EC50 of CD137 signaling (NFKB-Luc, Jurkat reporter cells co-cultured with NEC8 WT cells)” value in assay [1] was 180 pM.

B8: 1901Ab2 (bispecific antibody, human IgG1, kappa, L234A L235A)
heavy: not shown
light: DIQLTQSPSFLSASVGDRVPITCRASQGISNFLAWYQQKPGKAPELLIHSASTLQSGVPSRFSGSGSGTEFTLTISNLQPQDFATYYCQQVNSYPLTFGGGTKVEIKRTVAAPSVFIFPPSDEQLKSGTASVVCLLNNFYPREAKVQWKVDNALQSGNSQESVTEQDSKDSTYSLSSTLTLSKADYEKHKVYACEVTHQGLSSPVTKSFNRGEC
With B8, in assay [1], the “EC50 of CD137 signaling (NFKB-luc, Jurkat reporter cells co-cultured with NUGC4 cells)” value came out at 47 pM.

For the origin of these results see US20240383978A1 (NOVAROCK BIOTHERAPEUTICS, published 2024).
